# According to PMC6259326, “Study on Suitability of KOD DNA Polymerase for Enzymatic Production of Artificial Nucleic Acids Using Base/Sugar Modified Nucleoside Triphosphates” (Molecules, 2010):
# B1: Vent(exo-) DNA polymerase (Thermococcus litoralis; D141A/E143A) (protein)
# chain 1: MILDTDYITKDGKPIIRIFKKENGEFKIELDPHFQPYIYALLKDDSAIEEIKAIKGERHGKTVRVLDAVKVRKKFLGREVEVWKLIFEHPQDVPAMRGKIREHPAVVDIYEYDIPFAKRYLIDKGLIPMEGDEELKLLAFAIATFYHEGDEFGKGEIIMISYADEEEARVITWKNIDLPYVDVVSNEREMIKRFVQVVKEKDPDVIITYNGDNFDLPYLIKRAEKLGVRLVLGRDKEHPEPKIQRMGDSFAVEIKGRIHFDLFPVVRRTINLPTYTLEAVYEAVLGKTKSKLGAEEIAAIWETEESMKKLAQYSMEDARATYELGKEFFPMEAELAKLIGQSVWDVSRSSTGNLVEWYLLRVAYARNELAPNKPDEEEYKRRLRTTYLGGYVKEPEKGLWENIIYLDFRSLYPSIIVTHNVSPDTLEKEGCKNYDVAPIVGYRFCKDFPGFIPSILGDLIAMRQDIKKKMKSTIDPIEKKMLDYRQRAIKLLAN
# chain 2: SYYGYMGYPKARWYSKECAESVTAWGRHYIEMTIREIEEKFGFKVLYAD
# chain 3: TDGFYATIPGEKPELIKKKAKEFLNYINSKLPGLLELEYEGFYLRGFFVTKKRYAVIDEEGRITTRGLEVVRRDWSEIAKETQAKVLEAILKEGSVEKAVEVVRDVVEKIAKYRVPLEKLVIHEQITRDLKDYKAIGPHVAIAKRLAARGIKVKPGTIISYIVLKGSGKISDRVILLTEYDPRKHKYDPDYYIENQVLPAVLRILEAFGYRKEDLRYQSSKQTGLDAWLKR
# notes: commercial exonuclease-deficient enzyme (New England Biolabs), mature intein-free form
# Tests used:
# purified protein = substrate: Nc1ccn([C@H]2C[C@H](O)[C@@H](COP(=O)(O)OP(=O)(O)OP(=O)(O)O)O2)c(=O)n1; experiment: purified protein; conditions: apparent Km, 40 °C, primer P1 / template T1, misinsertion, 0.0125 U/μL enzyme
# [1] = substrate: Cc1cn([C@H]2C[C@H](O)[C@@H](COP(=O)(O)OP(=O)(O)OP(=O)(O)O)O2)c(=O)[nH]c1=O; experiment: single nucleotide primer extension, 6-FAM primer, denaturing PAGE; format: biochemical, Thermococcus litoralis; conditions: apparent Km, 40 °C, primer P1 / template T1, correct insertion, 0.0125 U/μL enzyme
# From the text: (§1) single nucleotide primer extension, 6-FAM primer, denaturing PAGE on Vent(exo-) DNA polymerase
# [2] = substrate: NCCCCCCNC(=O)Cc1cn([C@@H]2O[C@H](COP(=O)(O)OP(=O)(O)OP(=O)(O)O)[C@@H](O)[C@@H]2O)c(=O)[nH]c1=O; experiment: as above; format: biochemical, Thermococcus litoralis; conditions: apparent Km, 40 °C, primer P1 / template T1, correct insertion, 0.0125 U/μL enzyme
# From the text: as §1
# [3] = substrate: NCCCCCCNC(=O)Cc1cn([C@H]2C[C@H](O)[C@@H](COP(=O)(O)OP(=O)(O)OP(=O)(O)O)O2)c(=O)[nH]c1=O; experiment: as above; format: biochemical, Thermococcus litoralis; conditions: apparent Km, 40 °C, primer P1 / template T1, correct insertion, 0.0125 U/μL enzyme
# From the text: as §1
protein,measurement,setting,value
B1,Km,purified protein,1700 µM
same,kcat,purified protein,0.00233 s⁻¹
same,Km,[1],3 µM
same,kcat,[1],0.00567 s⁻¹
same,Km,[2],4.4 µM
same,kcat,[2],0.000817 s⁻¹
same,Km,[3],2.7 µM
same,kcat,[3],0.00483 s⁻¹
